Data reported in article PMC2965215.

Target: T1, ORF904 primase domain Y352A (Sulfolobus islandicus plasmid pRN1, UniProt Q54324 40-370, Y352A)
T1 sequence: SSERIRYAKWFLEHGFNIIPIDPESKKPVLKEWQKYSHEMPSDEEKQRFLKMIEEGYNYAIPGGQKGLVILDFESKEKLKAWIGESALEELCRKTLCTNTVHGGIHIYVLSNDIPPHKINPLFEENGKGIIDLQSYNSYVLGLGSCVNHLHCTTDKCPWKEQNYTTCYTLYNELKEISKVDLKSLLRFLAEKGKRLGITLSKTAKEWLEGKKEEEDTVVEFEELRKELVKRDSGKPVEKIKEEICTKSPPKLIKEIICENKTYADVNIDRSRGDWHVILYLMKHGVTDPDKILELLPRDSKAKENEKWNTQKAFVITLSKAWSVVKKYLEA
Assay: fluorescence anisotropy

**Q.** For TCTTCTGTGCACTCTTC (ssDNA) [templatefluo], which Kd is on record?
**A.** The Kd was 1.03 ± 0.08 µM.
